In publication PMC3317499 (2012) one finds ratio to parent data, which are given here for four variants.

First the molecules themselves.
B1: Myc-Mal-TIR wild type (TIR domain of human MyD88 adaptor-like protein, residues 79-221, double-tagged with His6 and Myc) [human] / GST-TLR4-TIR (TIR domain of human TLR4, residues 670-839, GST fusion) [human] (parent complex)
chain 1: SSRWSKDYDVCVCHSEEDLVAAQDLVSYLEGSTASLRCFLQLRDATPGGAIVSELCQALSSSHCRVLLITPGFLQDPWCKYQMLQALTEAPGAEGCTIPLLSGLSRAAYPPELRFMYYVDGRGPDGGFRQVKEAVMRYLQTLS
chain 2: GENIYDAFVIYSSQDEDWVRNELVKNLEEGVPPFQLCLHYRDFIPGVAIAANIIHEGFHKSRKVIVVVSQHFIQSRWCIFEYEIAQTWQFLSSRAGIIFIVLQKVEKTLLRQQVELYRLLSRNTYLEWEDSVLGRHIFWRRLRKALLDGKSWNPEGTVGTGCNWQEATSI
B2: Myc-Mal-TIR wild type (TIR domain of human MyD88 adaptor-like protein, residues 79-221, double-tagged with His6 and Myc) [human] / GST-MyD88-TIR (TIR domain of human MyD88, residues 148-296, GST fusion) [human] (parent complex)
chain 1: B1 chain 1
chain 2: TTLDDPLGHMPERFDAFICYCPSDIQFVQEMIRQLEQTNYRLKLCVSDRDVLPGTCVWSIASELIEKRCRRMVVVVSDDYLQSKECDFQTKFALSLSPGAHQKRLIPIKYKAMKKEFPSILRFITVCDYTNPCTKSWFWTRLAKALSLP

The first test covers variants of B1. Briefly: GST pull-down, quantified Western blot; n = 3 separate experiments; parent: 1; read off a plot.
As to chain 1 F39A, the ratio to parent is about 0.24.

On to chain 1 E30A, for which the ratio to parent was about 0.39.

In the next test the parent is B2. The test is described as above.
As to chain 1 F39A, the ratio to parent is about 0.42.

On to chain 1 E30A, for which the ratio to parent is about 0.76.
